Publication PMC2171589 (The Journal of Cell Biology, 2005)
Blank lines part the entries; values can stand above or below the binder they belong to.

Key:
Test in all cases: pull-down
[1] = molecular target: point mutant GAP (R50K) as GST fusion protein (GST-R50K GAP) (UniProt Q62848 1-415, R50K)
[2] = molecular target: ARFGAP1 as a GST fusion protein (GST-ARFGAP1) (UniProt Q62848 1-415)
[3] = molecular target: His-tagged, full-length, R50K point mutant GAP (UniProt Q62848 1-415, R50K)
[4] = molecular target: ARFGAP1, wild-type, 6x-his tagged, soluble (UniProt Q62848 1-415)
ARFGAP1, wild-type, 6x-his tagged, soluble, sequence (Q62848 whole entry): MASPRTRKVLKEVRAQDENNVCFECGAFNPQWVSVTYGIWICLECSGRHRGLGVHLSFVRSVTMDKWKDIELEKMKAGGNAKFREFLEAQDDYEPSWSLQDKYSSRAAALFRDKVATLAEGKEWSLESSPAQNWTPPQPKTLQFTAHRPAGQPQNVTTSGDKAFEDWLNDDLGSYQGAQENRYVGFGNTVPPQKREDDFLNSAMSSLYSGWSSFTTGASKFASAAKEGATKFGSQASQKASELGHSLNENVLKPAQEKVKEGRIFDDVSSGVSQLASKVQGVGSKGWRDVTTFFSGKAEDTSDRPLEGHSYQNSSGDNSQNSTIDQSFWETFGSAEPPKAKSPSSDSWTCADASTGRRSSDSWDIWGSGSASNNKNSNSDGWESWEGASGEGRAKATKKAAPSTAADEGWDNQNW

point mutant GAP (R50K) as GST fusion protein (GST-R50K GAP), sequence (Q62848 whole entry R50K, the tested form may be a part): as the sequence (Q62848 whole entry) above, with R50K counted along it
His-tagged, full-length, R50K point mutant GAP, sequence (Q62848 whole entry R50K): as the sequence (Q62848 whole entry) above, with R50K counted along it
ARFGAP1 as a GST fusion protein (GST-ARFGAP1), sequence (Q62848 whole entry, the tested form may be a part): as the sequence (Q62848 whole entry) above

binding result [1]: binds
binding result [2]: binds
B1: ARF1, full-length myristoylated form (ADP ribosylation factor 1) (natural protein)
chain: not shown
modifications: myristoylated

binding result [3]: binds
binding result [4]: binds
B2: GST-Wbp1 (cytoplasmic domain of Wbp1 fused to GST) (domain or fragment)
chain: KKLETFKKTN
